Assay: label from the status in PepcDB records

| Sequence | protein production |
| --- | --- |
| MVRRTRAEMEETRATLLATARKVFSERGYADTSMDDLTAQASLTRGALYHHFGDKKGLLAAVVEQIDAEMDERLQAISDTAEDDWEGFRCRCRAYLEMALEPEIQRIVLRDARAVLGGASPDSQRHCVESMQRLIDNLIRQGVVAEADPQALASLIYGSLAEAAFWIAEGEDGNARLAQGVAALELLLRGLLVKPR | not failed |
| MPSGQALRISRTCRLNAHPRFDRLWRSPTPIQVSAMIVAFRLFLACLGLFLCLSSPLAAQVSLYSGIAGTSDESAGGDLAEAIRAASEAGASVIVIDSAGRVAAAGTEAGAVETARVDPMGEASQLMKAQEKVSDFIGALRSRLEALPYSIFEVQYILRQTSPDGRIATYAEVLAINLVLLLIGRWMSIEIYGKRIARKHVVSRIREAPRGYREKMPFLVFRFVMGVGATLFAMVFAFIIGFLIFGPMQDLSIQFTVTAIFTAYFLARTASDLWRMVLSPYLSQYRLPPFSDRDAKRLYLWASLLATYDISSELFSTWVADFGLNYNVYAMVYGVLTGVGALGNVLMVLFNGRAISNAIRGGRTKDEVSWILRLVSVAWAPVVLFYMVFGWLQLAFDLVLERPVHIPLMAGTYGIFMSVVVAYGAMNYLLERYFDRTRQVKELNAALAEAEAAEDLSMTGVSAQRHHIATFEDLARRVAGILAFVVGTYALVLIWNPEMDWTGDLPIDRALDVMVIIFLGYIVFHFFRIWIDSKIAEETVDVPEGELGDEGGGTSASRLATLLPLFRGAILAVVVVSIVLIALMEVGINVSPLFAGAGVVGLAVGFGSQTLVRDIFSGAFFLVDDAFRKGEYIDIGDVKGTVEKISVRSFQLRHHLGALHTIPFGEIKVLTNFSRDWVIMKLPLRVTYDTDVEKVRKLIKNLGQELLSDPVIGDNFIQPLKSQGVIEMQDSAMIIRVKFMTKPGDQWLVRKRVYQDIRELFAREGIKFAHREVTVRLADGQEAAKMTPQQREAVTGAVQAAIDEDVLDDMMDDDR | failed |
| MKVLGYGREKKVILEAPNYDNDCVLANILAAHYLSSFDPVRARSYALAAESRLGKATLYEKAVFEAVSYLLSENMDDDVALELHSKLLKKFPKDLLSWKRVETLCSYMGRHDLSLPLFRKILPQNEGQVYVNGMLAFCLIELGHLREAEEAARKGCEINENDSWAHHALCHVLQTECRFKEAVKFMEEHSDSWDSCSSLRFSHNWWHVAVCYLEGGSHISKVEEVYDHQMWKELEKDDAVARDVYTDALGLLLRLDTRGKLDDGFQDRLEKLADSLTDKAMWYQDWLFDITTIWALSKVEKTSLAHELLEGLKSRTSAMNPKKQKLMQKAILLAEAVYEYGKGNYEIALELLGLDFDAANYKVIGGSGLQMDVFNEIWYKLLLLNGKSSTGTLLKNTIISIYFGYIFVFSATNSAFTTPEPAAIEVLEKVTKQRDGAPFLWRLLEESYSMEGKEKAGISAGKKAKALESSYFKSA | failed |
| MANIVFIATSLDGYIADKRGKLDWLHSVPNPNNVDTGFVALMERVDGLVMGRNTLDMVLSFDCDWPYSKPVFVLSNTMTEVPQGYEDKVFLVKGKLVDIIADLNAKGFNELYIDGGVTIQNFLKEDLIDEMVITRFPILLGGGVPLFGELESSLSFNVIKSEVVLDSLTQTTYHRKRA | not failed |
| MNMLVINGTPRKHGRTRIAASYIAALYHTDLIDLSEFVLPVFNGEAEQSELLKVQELKQRVTKADAIVLLSPEYHSGMSGALKNALDFLSSEQFKYKPVALLAVAGGGKGGINALNNMRTVMRGVYANVIPKQLVLDPVHIDVENATVAENIKESIKELVEELSMFAKAGNPGV | not failed |
| RIGDGSPSHPPILERTLDDVPGPPMGILFPEVRTTSVRLIWQPPAAPNGIILAYQITHRLNTTTANTATVEVLAPSARQYTATGLKPESVYLFRITAQTRKGWGEAAEALVVTTEKR | not failed |
| GVKYTIAVLGPQGSFSEEMALKLVGSRVPLRYCSTTDEIIKLVESGEVDYGLVPIENSVNGTVLPVIDALLNHDVEVFGEAKLEVNHCLVAKRKIELKEIKTIYSHPQAVAQCMGFINNYLPSVAIRYTTSTSDAARMLDDYSAAIMSENAARFYRLHVLRKGIQDLKGRNITRFYLIRRRSG | failed |
| MKVLRLGIVFQLLFVLLLTVGNFARIFIIDHYSVYPIAFFELFLGIGSLSCGVYGLIKTEKPILSLWLICFGLLICVFFIVVYLLPEGDIPPEITWFYSE | failed |
| HEHPTSAGGDGGAGTGAVGTHDGSAAAAAAAAALPSISGARGHAGPEGGHDNDMGGMDASGGGGGGGYGRLPGLAAQSSMASVDGDEASLPPIANLSLGKANMTGSTVGGAAHASTRRSTLNTYYEPGAGGGGGTGGAGGGGGGAGPGPAGYGKVAKAAAVGGAGSVAGGGGVVGGAGVGGGGAVGSGTVGRRQSVGVVVGKYGSVNKQASQGHGGGGPGVAGAAGMAVTGGHAGGGVGGGGGGAVGVGGVGVNKYKANVGKTNSKYISPYSLRQLAG | failed |
| IKNFLYAWCGKRKMTPAYEIRAVGNKNRQKFMCEVRVEGFNYAGMGNSTNKKDAQSNAARDFVNYLVRINEVKSEEVPAVGIVPPP | not failed |
| MNRKKLQKLTDTLTKNCKHFNKFEVNCLIKLFYDLVGGVERQGLVVGLDRNAFRNILHVTFGMTDDMIMDRVFRGFDKDNDGCVNVLEWIHGLSLFLRGSLEEKMKYCFEVFDLNGDGFISKEEMFHMLKNSLLKQPSEEDPDEGIKDLVEITLKKMDHDHDGKLSFADYELAVREETLLLEAFGPCLPDPKSQMEFEAQVFKDPNEFNDM | failed |
| MKPQVYHVDAFTSQPFRGNSAGVVFPADNLSEAQMQLIARELGHSETAFLLHSDDSDVRIRYFTPTVEVPICGHATVAAHYVRAKVLGLGNCTIWQTSLAGKHRVTIEKHNDDYRISLEQGTPGFEPPLEGETRAAIINALHLTEDDILPGLPIQVATTGHSKVMIPLKPEVDIDALSPDLNALTAISKKIGCNGFFPFQIRPGKNETDGRMFSPAIGIVEDPVTGNANGPMGAWLVHHNVLPHDGNVLRVKGHQGRALGRDGMIEVTVTIRDNQPEKVTISGTAVILFHAEWAIEL | not failed |
| MLKTTKKSLLVFMGVFFLIFGVDQAIKYAILEGFRYESLMIDIVLVFNKGVAFSLLSFLEGGLKYLQILLILGLFIFLMRQRELFKNHAIEFGMVFGAGVSNVLDRFVHGGVVDYVYYHYGFDFAIFNFADVMIDVGVGVLLLKQFFFKQKQNKIKA | failed |
| MAKVSVYIIAYNEEQKIEPALQSVTWADEIVVIDSFSTDRTAEIARKYTDKVIQVPFEGFGKLRNSAIAATSHEWIFSLDTDERCTEEAKNEILAIIDSPDALDAYYVPRRNIFMGRWVKHSGWYPDYRQPQLFRRGAQVFTDEVVHESFTTIGRVGHMKNAIWQIPFRNFEQMISKIDRYSTLGAAKMTAKGVRPGMGKALFHALFAFFRMYILRLGILDGWAGFVIALYTFEGTFYRYAKQVEAARGWVMTRPEELER | failed |
| MAEIIDKTLNMLVTGQRARVIQIKGKGNSRKRLLEMGMVPGTVLSVTKKAPLGDPVDFKLKGYNLSLRKQEAEMIVVEPLEG | failed |
| MAGGGNRRDEGSITIQSTNLFAALDTRKKKKKSDKAGKSKGSSKSREPEKEPEPQVYWAPTPLKVKSWADIDDEDDDDDYYATTAPPQSGWSTSLPSHTDSKDVHVEESESEEDILDEGDDDVEEEQEQETEVQVHPEPEVKKAPEVPAPPKEAERQLSKKERKKKELAELEALLADFGVAPKENNGLEESQEAGQEKKEDVNGEGEKKENAAGGESKASKKKKKKDKQKEVKESQEQQANNNADAVDEAAGSEPTEEESPIDVKERIKKLASMKKKKSGKEVDAAAKAAAEEAAARRKKLAAAKKKEKNHYNQQPVR | failed |
| KGKIQEADNAAKLSAIKFVLKDPLTGDYLVDEKEIEEIVKKTGIETVVLKEYKEGVVLGPLYEFVTKDGRNAYVLSGYAPGFGGNVTVVACFIKTEDGFMLNSVRVIDYSQETPGLGAKIGEESIQRRFFPVPPEGLKNGLRVDKDAGLPKGSPEELKKQGIVKVSDVMTGATITPRAVVTALNLMYRYLEEVSK | not failed |
| MAVRGVSLRQPYPREPRGWHQEWSLRRAMRMARAAYWESYSATATDFWMSAEFTSLYDADTPDDSVPLAPARDHDLTDSHAILQAHYAACWTEGRPFAVETKLIKPDGRLLDCVVHGEPEFDANGQVQRVFGIVRDATPETSALRQLAVSEQRLADFVSTASDWCWESGPDHRLLPYPKSLDGNAALQTVASGGKARWELAYAPDEEGSMALHRDDMEAHRPFRDFIYTSIGNDGSRIIISTSGKPIFADDGTFLGYRGTASDITQLAAARTLLDQRTGALEEAHRLGRIGTWTHRLDTGRTVWSPELYQLLGLEPDAFEPTYEGTEPYFLDDDAARLLKIQKRVLRTSTTEATDIRILHTDGTPRDLAIICKAEISNGNVIGLIGTAQDVTDRKEAERRLEQLAYTDPLTGLANRALYKRKLADLFENPMAEHGQNALYLIDLDRFKEVNDSLGHSTGDSLLIHVAGVLRQELGPQAFIARIGGDEFAVLTNSPNTSVEATTALADRLIAKLSVPVELAEGEACIGATIGIAILPEHGATAEKASRNADLALYMAKEAGRGRAQLFEPMYAEAVDQKLDLGRRLRHAVDSGGLNTHYQPQIDLKTGRVIGFEALLRWSHPERGPISPAEFIPIAETTGLIVDLGHWVLRDACKQMRGWLDAGLPARTISVNVSPAQIWNGDFEKVVATVLADTGLPPELLCLELTENLFVDHTKQKVSTTLAALSKLGIQLALDDFGSGYSSLGYLTRLPFNRLKIDRSFVDGIATVPEKRKLLGGIIALSHGLGMSVVAEGAELQAEVDLLAAFDCDFVQGYAFSKPVAADQAAVVAAEIERKPGR | failed |
| MNLRLAAALCAALSLCAVLAVPANFPALGGDARLTLAVFALATCAWIGTPIDDTYIALGAGLALTATGVISSDTLFGTLGEDTVWLLICAFVLAAAVARTGLAGRAAAFLVGGARTVRQLVHLTTAALVVTAFAMPATSGRAALALPVFLALAKVLADRKRLVVMLALLFPTVILLSAVATLIGAGAHLITVSVLWEATGDRIGFTQWLLLGLPLAVASSHLAAETVLLTTTRRADRAGPVRITAEEIQRHSESPVTGPWTQAEKRCALLLATVVALWCSEPLHRVSPAVVALIGAVVASSPALGTVRLKDALKTVPWSLLLFMAATMAMGVALADSGAAGWLVSGLPADVAPAVFLGVVVAVSTAAHLVLQSRSARSSVLVPLVIAAAVGAGVNPVAAALASTAAAGFCHTLPASAKPVTLFSDVPGVPTYTPRDLLRLSAVLAPLTALLVLFFAAAVWPLLGVPVTR | failed |
| MLQRFYETLSTLRARWTRFTESPMGAWVRTGLRWLFVGGIVAYLAYELTTIGWGEVARALPVTPWFYVLLLLMYGTLPLTEAVLYGTAWGAQYRDLLPVLFRKRVLNNDVLGYSGEAYFYLWARRETNLGTGTVLRTVKDNVVISSVASTSVAFGLLAVFFLTGQIELLRQYLPSEAYTLGAGVAVLIILVSAVVAFRRSILSLPSSLLGLFAAGHVARFVLNNGLQVTQWAVVIPEVSAGTWITLLALYIVIQQVPFVPSRGLVFMSAGVGLSGPLQIPEAPLASMLLAQSLLDRGLNFLVYTGTTAAEAVGDDVEELDDLSIPEEMG | failed |
| MSPASGSVISCAKVLDDYFYGSSNTVEALLLNSFETPALLFTTETSNLLTDIREDRSRHIEKISPYLLLTAGILSGFNPCLLAVMAFLASVNLTQKGRRKEMLKITLGFSTGIFTMHMLAGLSILGTVNFLPELRSYFSEIAVVMTALLGFWHIYDAYWLRKHAKTTFRTPQPLKDFMSRMDEKNLLLLSFLAGGMFSLVKAPCVGAVYLSLLSLLAMKTDIVRGIEYIWIFNLGLLLPVVLLGLLLAFGLSPKTVTEFRERKRVGIRLITGSILISLALMMQFRIL | failed |
